Experimental data taken from article PMC2770657.
Substitutions are numbered along the chain they refer to. Like-named read-outs stand apart in the source and are kept apart here.

T1: hPifHD (human Pif1 helicase domain) (Homo sapiens, UniProt Q9H611 206-620)
T1 sequence: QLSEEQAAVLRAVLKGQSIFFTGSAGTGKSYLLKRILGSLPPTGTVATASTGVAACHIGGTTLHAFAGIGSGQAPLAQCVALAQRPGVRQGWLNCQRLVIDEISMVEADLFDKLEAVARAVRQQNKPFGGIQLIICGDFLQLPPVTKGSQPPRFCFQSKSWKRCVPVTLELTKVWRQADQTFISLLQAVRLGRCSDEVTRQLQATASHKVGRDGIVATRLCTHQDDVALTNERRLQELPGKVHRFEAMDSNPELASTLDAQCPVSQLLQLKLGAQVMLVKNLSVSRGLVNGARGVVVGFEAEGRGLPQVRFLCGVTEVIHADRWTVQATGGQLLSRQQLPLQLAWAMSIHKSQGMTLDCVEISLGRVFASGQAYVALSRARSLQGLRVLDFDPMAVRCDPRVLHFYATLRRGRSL

T2: hPifHD E307Q (Homo sapiens, UniProt Q9H611 206-620, E307Q)
T2 sequence: T1 sequence with E102Q

B1: T25 (ssDNA)
DNA: TTTTTTTTTTTTTTTTTTTTTTTTT
B2: T50 (ssDNA)
DNA: TTTTTTTTTTTTTTTTTTTTTTTTTTTTTTTTTTTTTTTTTTTTTTTTTT
B3: T55 (ssDNA)
DNA: TTTTTTTTTTTTTTTTTTTTTTTTTTTTTTTTTTTTTTTTTTTTTTTTTTTTTTT
B4: T35 (ssDNA)
DNA: TTTTTTTTTTTTTTTTTTTTTTTTTTTTTTTTTTT

Tests used:
Experiment in all cases: EMSA
[1] = target: T1, hPifHD (human Pif1 helicase domain)
[2] = target: T1, hPifHD (human Pif1 helicase domain); remark: listed apart in the source
[3] = target: T2, hPifHD E307Q

Binder	binding result [2]	other results
B1		binding result [1]: no binding
B2	binds	
B3		binding result [3]: binds
B4	binds	
